The values that follow come from patent publication US20260167693A1 (ANGELES THERAPEUTICS, published 2026).

Sequences and labels used below:
T1: CD19-ECD-GGSG-NLuc-AcV5 (human)
T1 construct: also called CD19-GGSG-NLuc-AcV5; Flag-CD19-GGSG-NLuc-AcV5
T1 chain: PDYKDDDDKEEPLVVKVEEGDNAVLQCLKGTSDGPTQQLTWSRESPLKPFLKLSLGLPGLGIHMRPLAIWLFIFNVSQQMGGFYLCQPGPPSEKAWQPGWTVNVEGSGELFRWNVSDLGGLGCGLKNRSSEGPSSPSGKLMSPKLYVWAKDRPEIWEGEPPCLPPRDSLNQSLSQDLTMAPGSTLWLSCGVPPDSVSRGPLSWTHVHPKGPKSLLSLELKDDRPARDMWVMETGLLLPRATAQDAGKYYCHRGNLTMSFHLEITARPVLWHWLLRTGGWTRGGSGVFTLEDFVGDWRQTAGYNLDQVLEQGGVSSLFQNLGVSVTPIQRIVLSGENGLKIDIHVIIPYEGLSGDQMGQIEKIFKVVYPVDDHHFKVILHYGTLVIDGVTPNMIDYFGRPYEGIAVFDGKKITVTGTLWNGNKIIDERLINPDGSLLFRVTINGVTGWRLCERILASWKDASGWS

B1: CD8SP-FMC63-vL-PG4SP-v2-[hTCRb-KACIAH]-F-P2A-SP-FMC63-vH-PG4SP-[hTCRa-CSDVP]-F-F2A-PAC (other)
TCR beta: DIQMTQTTSSLSASLGDRVTISCRASQDISKYLNWYQQKPDGTVKLLIYHTSRLHSGVPSRFSGSGSGTDYSLTISNLEQEDIATYFCQQGNTLPYTFGGGTKLEITPGGGGSPEDLKNVFPPEVAVFEPSKAEIAHTQKATLVCLATGFYPDHVELSWWVNGKEVHSGVCTDPQPLKEQPALNDSRYCLSSRLRVSATFWQNPRNHFRCQVQFYGLSENDEWTQDRAKPVTQIVSAEAWGRADCGITSASYHQGVLSATILYEILLGKATLYAVLVSALVLMAMVKRKDSRG
TCR alpha: EVKLQESGPGLVAPSQSLSVTCTVSGVSLPDYGVSWIRQPPRKGLEWLGVIWGSETTYYNSALKSRLTIIKDNSKSQVFLKMNSLQTDDTAIYYCAKHYYYGGSYAMDYWGQGTSVTVSSPGGGGSPIQNPDPAVYQLRDSKSSDKSVCLFTDFDSQTNVSQSKDSDVYITDKCVLDMRSMDFKSNSAVAWSNKSDFACANAFNNSIIPEDTFFPSSDVPCDVKLVEKSFETDTNLNFQNLSVIGFRILLLKVAGFNLLMTLRLWSS
notes: Polyprotein PRT 12433; also called 040617-A09
B2: CD8SP-FMC63-vL-E-Coil-[hTCRb-KACIAH]-F-P2A-SP-FMC63-vH-K-coil-[hTCRa-CSDVP]-F-F2A-PAC (other)
TCR beta: B1 TCR beta with P108E, G109V, G110A, G111A, G112L, S113E, P114R
TCR alpha: B1 TCR alpha with P121R, G122V, G123A, G124A, G125L, S126K, P127E
notes: Polyprotein PRT 12434; also called 040617-B09
B3: CD8SP-FMC63-vL-[hTCRb-R18A22]-F-P2A-SP-FMC63-vH-Myc4-[hTCRa-SD]-F-F2A-PAC (other)
TCR beta: DIQMTQTTSSLSASLGDRVTISCRASQDISKYLNWYQQKPDGTVKLLIYHTSRLHSGVPSRFSGSGSGTDYSLTISNLEQEDIATYFCQQGNTLPYTFGGGTKLEITEDLKNVFPPEVAVFEPSRAEIAHTQKATLVCLATGFYPDHVELSWWVNGKEVHSGVSTDPQPLKEQPALNDSRYCLSSRLRVSATFWQNPRNHFRCQVQFYGLSENDEWTQDRAKPVTQIVSAEAWGRADCGFTSESYQQGVLSATILYEILLGKATLYAVLVSALVLMAMVKRKDSRG
TCR alpha: EVKLQESGPGLVAPSQSLSVTCTVSGVSLPDYGVSWIRQPPRKGLEWLGVIWGSETTYYNSALKSRLTIIKDNSKSQVFLKMNSLQTDDTAIYYCAKHYYYGGSYAMDYWGQGTSVTVSSEQKLISEEDLGSGIQNPDPAVYQLRDSKSSDKSVCLFTDFDSQTNVSQSKDSDVYITDKTVLDMRSMDFKSNSAVAWSNKSDFACANAFNNSIIPEDTFFPSSDSSCDVKLVEKSFETDTNLNFQNLSVIGFRILLLKVAGFNLLMTLRLWSS
notes: Polyprotein PRT 12439; also called 112116-R08
B4: CD8SP-FMC63-vL-Myc2-[hTCRb-R18A22]-F-P2A-SP-FMC63-vH-Myc4-[hTCRa-SD]-F-F2A-PAC (other)
TCR beta: DIQMTQTTSSLSASLGDRVTISCRASQDISKYLNWYQQKPDGTVKLLIYHTSRLHSGVPSRFSGSGSGTDYSLTISNLEQEDIATYFCQQGNTLPYTFGGGTKLEITEQKLISEEDLGSGEDLKNVFPPEVAVFEPSRAEIAHTQKATLVCLATGFYPDHVELSWWVNGKEVHSGVSTDPQPLKEQPALNDSRYCLSSRLRVSATFWQNPRNHFRCQVQFYGLSENDEWTQDRAKPVTQIVSAEAWGRADCGFTSESYQQGVLSATILYEILLGKATLYAVLVSALVLMAMVKRKDSRG
TCR alpha: B3 TCR alpha
notes: Polyprotein PRT 12440; also called 112116-S08
B5: CD8SP-FMC63-vL-[hTCRb-RC]-F-P2A-SP-FMC63-vH-[hTCRa-CSDVP]-F-F2A-PAC (other)
TCR beta: B3 TCR beta with A129S, S164C
TCR alpha: EVKLQESGPGLVAPSQSLSVTCTVSGVSLPDYGVSWIRQPPRKGLEWLGVIWGSETTYYNSALKSRLTIIKDNSKSQVFLKMNSLQTDDTAIYYCAKHYYYGGSYAMDYWGQGTSVTVSSIQNPDPAVYQLRDSKSSDKSVCLFTDFDSQTNVSQSKDSDVYITDKCVLDMRSMDFKSNSAVAWSNKSDFACANAFNNSIIPEDTFFPSSDVPCDVKLVEKSFETDTNLNFQNLSVIGFRILLLKVAGFNLLMTLRLWSS
notes: Polyprotein PRT 12445; also called 121516-U07
B6: CD8SP-FMC63-vL-[hTCRb-R18]-F-P2A-SP-FMC63-vH-Myc4-[hTCRa-SD]-F-F2A-PAC (other)
TCR beta: B3 TCR beta with A129S
TCR alpha: B3 TCR alpha
notes: Polyprotein PRT 12442; also called 112116-U08
B7: CD8SP-FMC63-vL-[hTCRb-KACIAH]-F-P2A-SP-FMC63-vH-[hTCRa-CSDVP]-F-F2A-PAC (other)
TCR beta: B3 TCR beta with R125K, S164C, F240I, E243A, Q246H
TCR alpha: B5 TCR alpha
notes: Polyprotein PRT 12468; also called 022217-E01
B8: CD8SP-FMC63-vL-[hTCRa-CSDVP]-F-F2A-SP-FMC63-vH-[hTCRb-KACIAH]-F-P2A-PAC (other)
TCR alpha: DIQMTQTTSSLSASLGDRVTISCRASQDISKYLNWYQQKPDGTVKLLIYHTSRLHSGVPSRFSGSGSGTDYSLTISNLEQEDIATYFCQQGNTLPYTFGGGTKLEITIQNPDPAVYQLRDSKSSDKSVCLFTDFDSQTNVSQSKDSDVYITDKCVLDMRSMDFKSNSAVAWSNKSDFACANAFNNSIIPEDTFFPSSDVPCDVKLVEKSFETDTNLNFQNLSVIGFRILLLKVAGFNLLMTLRLWSS
TCR beta: EVKLQESGPGLVAPSQSLSVTCTVSGVSLPDYGVSWIRQPPRKGLEWLGVIWGSETTYYNSALKSRLTIIKDNSKSQVFLKMNSLQTDDTAIYYCAKHYYYGGSYAMDYWGQGTSVTVSSEDLKNVFPPEVAVFEPSKAEIAHTQKATLVCLATGFYPDHVELSWWVNGKEVHSGVCTDPQPLKEQPALNDSRYCLSSRLRVSATFWQNPRNHFRCQVQFYGLSENDEWTQDRAKPVTQIVSAEAWGRADCGITSASYHQGVLSATILYEILLGKATLYAVLVSALVLMAMVKRKDSRG
notes: Polyprotein PRT 12469; also called 022217-F01
B9: CD8SP-FMC63-vL-V5-[hTCRb-KACIAH]-F-P2A-SP-FMC63-vH-Myc-[hTCRa-CSDVP]-F-F2A-PAC (010616-C01)[SEQ ID NO:1200] (other)
TCR beta: DIQMTQTTSSLSASLGDRVTISCRASQDISKYLNWYQQKPDGTVKLLIYHTSRLHSGVPSRFSGSGSGTDYSLTISNLEQEDIATYFCQQGNTLPYTFGGGTKLEITGKPIPNPLLGLDSTGSGEDLKNVFPPEVAVFEPSKAEIAHTQKATLVCLATGFYPDHVELSWWVNGKEVHSGVCTDPQPLKEQPALNDSRYCLSSRLRVSATFWQNPRNHFRCQVQFYGLSENDEWTQDRAKPVTQIVSAEAWGRADCGITSASYHQGVLSATILYEILLGKATLYAVLVSALVLMAMVKRKDSRG
TCR alpha: EVKLQESGPGLVAPSQSLSVTCTVSGVSLPDYGVSWIRQPPRKGLEWLGVIWGSETTYYNSALKSRLTIIKDNSKSQVFLKMNSLQTDDTAIYYCAKHYYYGGSYAMDYWGQGTSVTVSSEQKLISEEDGSGIQNPDPAVYQLRDSKSSDKSVCLFTDFDSQTNVSQSKDSDVYITDKCVLDMRSMDFKSNSAVAWSNKSDFACANAFNNSIIPEDTFFPSSDVPCDVKLVEKSFETDTNLNFQNLSVIGFRILLLKVAGFNLLMTLRLWSS
notes: Polyprotein PRT 3435; also called 102615-C08
B10: CD8SP-FMC63-vL-V5-[hTCRb-KACIAH]-F-P2A-SP-FMC63-vH-[GSG-hTCRa-T48C-opt]-F-F2A-PAC (other)
TCR beta: B9 TCR beta
TCR alpha: EVKLQESGPGLVAPSQSLSVTCTVSGVSLPDYGVSWIRQPPRKGLEWLGVIWGSETTYYNSALKSRLTIIKDNSKSQVFLKMNSLQTDDTAIYYCAKHYYYGGSYAMDYWGQGTSVTVSSGSGIQNPDPAVYQLRDSKSSDKSVCLFTDFDSQTNVSQSKDSDVYITDKCVLDMRSMDFKSNSAVAWSNKSDFACANAFNNSIIPEDTFFPSPESSCDVKLVEKSFETDTNLNFQNLSVIGFRILLLKVAGFNLLMTLRLWSS
notes: Polyprotein PRT 12436; also called 110916-M04
B11: CD8SP-FMC63-vL-V5-[hTCRb-KACIAH]-F-P2A-SP-FMC63-vH-Myc4-[hTCRα-SD]-F-F2A-PAC (other)
TCR beta: B9 TCR beta
TCR alpha: B3 TCR alpha
notes: Polyprotein PRT 12444; also called 120916-R01
B12: CD8SP-FMC63-vL-[hTCRb-S57C-opt]-F-P2A-SP-FMC63-vH-Myc-[hTCRa-CSDVP]-F-F2A-PAC (other)
TCR beta: B3 TCR beta with R125E, A129S, S164C
TCR alpha: B9 TCR alpha
notes: Polyprotein PRT 12438; also called 110916-P02
B13: CD8SP-FMC63-vL-GSG-hTCRb-RAC-F-P2A-SP-FMC63-vH-Myc-[hTCRa-CSDVP]-F-F2A-PAC (other)
TCR beta: DIQMTQTTSSLSASLGDRVTISCRASQDISKYLNWYQQKPDGTVKLLIYHTSRLHSGVPSRFSGSGSGTDYSLTISNLEQEDIATYFCQQGNTLPYTFGGGTKLEITGSGEDLKNVFPPEVAVFEPSRAEIAHTQKATLVCLATGFYPDHVELSWWVNGKEVHSGVCTDPQPLKEQPALNDSRYCLSSRLRVSATFWQNPRNHFRCQVQFYGLSENDEWTQDRAKPVTQIVSAEAWGRADCGFTSESYQQGVLSATILYEILLGKATLYAVLVSALVLMAMVKRKDSRG
TCR alpha: B9 TCR alpha
notes: Polyprotein PRT 12447; also called 121516-W05

Substitutions are numbered along the chain they refer to. Names and notes keep the numbering of the source.

For the test, the target named is T1, CD19-ECD-GGSG-NLuc-AcV5. The test can be described thus: NLuc binding assay, SIR on Jurkat-NFAT-GFP cells.
Consider B1, for which the “CD19-GGSG-NLuc (RLU)” value was found to be 53700 RLU. Consider B2, for which the “CD19-GGSG-NLuc (RLU)” value worked out at 35700 RLU.

B3: the “CD19-GGSG-NLuc (RLU)” value came to 7570 RLU. The figure for B4 is 4480 RLU; for B5 it is 12600 RLU. The figure for B6 is 3910 RLU; for B7 it is 9760 RLU; for B8 it is 21300 RLU. The same measure for B9: 6840 RLU; for B10: 20500 RLU; for B11: 2660 RLU. As for B12, the “CD19-GGSG-NLuc (RLU)” value turned out to be 2180 RLU. The figure for B13 is 17200 RLU.
